Kd data for 27 molecules are collected here from PMC10786891, “Massively parallel profiling of RNA-targeting CRISPR-Cas13d”.

Sequences and labels used below:
T1: EsCas13d, nuclease-dead (Eubacterium siraeum, UniProt B0MS50, R295A;H300A;R849A;H854A)
T1 sequence: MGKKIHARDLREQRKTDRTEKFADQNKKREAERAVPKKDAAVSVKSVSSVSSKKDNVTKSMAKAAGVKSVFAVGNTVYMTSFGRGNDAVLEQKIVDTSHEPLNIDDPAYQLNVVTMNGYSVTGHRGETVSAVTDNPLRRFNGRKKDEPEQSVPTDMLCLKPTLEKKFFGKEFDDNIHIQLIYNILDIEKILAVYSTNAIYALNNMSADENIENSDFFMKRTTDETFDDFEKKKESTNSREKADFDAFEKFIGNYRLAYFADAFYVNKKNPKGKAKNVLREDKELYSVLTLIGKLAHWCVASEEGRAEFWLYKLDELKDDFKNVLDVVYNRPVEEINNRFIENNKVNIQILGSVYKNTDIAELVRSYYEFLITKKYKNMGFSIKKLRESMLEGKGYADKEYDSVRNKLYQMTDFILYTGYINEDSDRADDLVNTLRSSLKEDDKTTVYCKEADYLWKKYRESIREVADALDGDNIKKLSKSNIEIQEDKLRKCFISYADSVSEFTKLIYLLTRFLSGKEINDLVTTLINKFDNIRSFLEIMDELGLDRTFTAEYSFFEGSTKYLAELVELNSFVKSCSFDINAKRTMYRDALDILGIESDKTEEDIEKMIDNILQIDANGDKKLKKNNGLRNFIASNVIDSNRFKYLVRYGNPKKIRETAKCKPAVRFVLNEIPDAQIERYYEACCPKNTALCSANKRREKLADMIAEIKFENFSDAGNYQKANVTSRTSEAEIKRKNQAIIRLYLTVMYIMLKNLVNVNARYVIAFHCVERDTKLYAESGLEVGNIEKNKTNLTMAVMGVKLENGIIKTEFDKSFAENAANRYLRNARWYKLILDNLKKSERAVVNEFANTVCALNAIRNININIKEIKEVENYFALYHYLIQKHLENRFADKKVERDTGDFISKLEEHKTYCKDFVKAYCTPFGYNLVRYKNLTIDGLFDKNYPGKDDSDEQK

B1: target 1 insU 3' of 7,insA 3' of 2 (mixed)
RNA 1: CACCCGUGCAAAAAUGCAGGGGUCUAAAACUGAGCGGAUAACCUCUCUAUGG
RNA 2: GGGAAUGGAUCCACAUCUACGAAUUCGUACCAUAGAGAGGUUAUCUCGCUCAACCGAGAUCGGAAGAGCACACGU
B2: target 1 insC 3' of 13,insA 3' of 3 (mixed)
RNA 1: CACCCGUGCAAAAAUGCAGGGGUCUAAAACUGAGCGGAUAACCUCUCUAUGG
RNA 2: GGGAAUGGAUCCACAUCUACGAAUUCGUACCAUAGAGAGCGUUAUCCGCUACACCGAGAUCGGAAGAGCACACGU
B3: target 1 insC 3' of 13,insC 3' of 8 (mixed)
RNA 1: CACCCGUGCAAAAAUGCAGGGGUCUAAAACUGAGCGGAUAACCUCUCUAUGG
RNA 2: GGGAAUGGAUCCACAUCUACGAAUUCGUACCAUAGAGAGCGUUAUCCCGCUCACCGAGAUCGGAAGAGCACACGU
B4: target 1 insC 3' of 20,insG 3' of 4 (mixed)
RNA 1: CACCCGUGCAAAAAUGCAGGGGUCUAAAACUGAGCGGAUAACCUCUCUAUGG
RNA 2: GGGAAUGGAUCCACAUCUACGAAUUCGUACCACUAGAGAGGUUAUCCGCGUCACCGAGAUCGGAAGAGCACACGU
B5: target 1 insC 3' of 17,insU 3' of 9 (mixed)
RNA 1: CACCCGUGCAAAAAUGCAGGGGUCUAAAACUGAGCGGAUAACCUCUCUAUGG
RNA 2: GGGAAUGGAUCCACAUCUACGAAUUCGUACCAUAGCAGAGGUUAUUCCGCUCACCGAGAUCGGAAGAGCACACGU
B6: target 1 C2G,C7A (mixed)
RNA 1: CACCCGUGCAAAAAUGCAGGGGUCUAAAACUGAGCGGAUAACCUCUCUAUGG
RNA 2: GGGAAUGGAUCCACAUCUACGAAUUCGUACCAUAGAGAGGUUAUACGCUGACCGAGAUCGGAAGAGCACACGU
B7: target 1 insC 3' of 18,insU 3' of 2 (mixed)
RNA 1: CACCCGUGCAAAAAUGCAGGGGUCUAAAACUGAGCGGAUAACCUCUCUAUGG
RNA 2: GGGAAUGGAUCCACAUCUACGAAUUCGUACCAUACGAGAGGUUAUCCGCUCUACCGAGAUCGGAAGAGCACACGU
B8: target 1 insG 3' of 16,insG 3' of 11 (mixed)
RNA 1: CACCCGUGCAAAAAUGCAGGGGUCUAAAACUGAGCGGAUAACCUCUCUAUGG
RNA 2: GGGAAUGGAUCCACAUCUACGAAUUCGUACCAUAGAGGAGGUGUAUCCGCUCACCGAGAUCGGAAGAGCACACGU
B9: target 1 insC 3' of 15 (mixed)
RNA 1: CACCCGUGCAAAAAUGCAGGGGUCUAAAACUGAGCGGAUAACCUCUCUAUGG
RNA 2: GGGAAUGGAUCCACAUCUACGAAUUCGUACCAUAGAGCAGGUUAUCCGCUCACCGAGAUCGGAAGAGCACACGU
B10: target 1 insG 3' of 18,insC 3' of 18 (mixed)
RNA 1: CACCCGUGCAAAAAUGCAGGGGUCUAAAACUGAGCGGAUAACCUCUCUAUGG
RNA 2: GGGAAUGGAUCCACAUCUACGAAUUCGUACCAUAGCGAGAGGUUAUCCGCUCACCGAGAUCGGAAGAGCACACGU
B11: target 1 insC 3' of 13 (mixed)
RNA 1: CACCCGUGCAAAAAUGCAGGGGUCUAAAACUGAGCGGAUAACCUCUCUAUGG
RNA 2: GGGAAUGGAUCCACAUCUACGAAUUCGUACCAUAGAGAGCGUUAUCCGCUCACCGAGAUCGGAAGAGCACACGU
B12: target 1 insG 3' of 21,insC 3' of 20 (mixed)
RNA 1: CACCCGUGCAAAAAUGCAGGGGUCUAAAACUGAGCGGAUAACCUCUCUAUGG
RNA 2: GGGAAUGGAUCCACAUCUACGAAUUCGUACCGACUAGAGAGGUUAUCCGCUCACCGAGAUCGGAAGAGCACACGU
B13: target 1 insC 3' of 17,insG 3' of 4 (mixed)
RNA 1: CACCCGUGCAAAAAUGCAGGGGUCUAAAACUGAGCGGAUAACCUCUCUAUGG
RNA 2: GGGAAUGGAUCCACAUCUACGAAUUCGUACCAUAGCAGAGGUUAUCCGCGUCACCGAGAUCGGAAGAGCACACGU
B14: target 1 insG 3' of 18,insG 3' of 14 (mixed)
RNA 1: CACCCGUGCAAAAAUGCAGGGGUCUAAAACUGAGCGGAUAACCUCUCUAUGG
RNA 2: GGGAAUGGAUCCACAUCUACGAAUUCGUACCAUAGGAGAGGGUUAUCCGCUCACCGAGAUCGGAAGAGCACACGU
B15: target 1 insG 3' of 16,insC 3' of 14 (mixed)
RNA 1: CACCCGUGCAAAAAUGCAGGGGUCUAAAACUGAGCGGAUAACCUCUCUAUGG
RNA 2: GGGAAUGGAUCCACAUCUACGAAUUCGUACCAUAGAGGACGGUUAUCCGCUCACCGAGAUCGGAAGAGCACACGU
B16: target 1 insA 3' of 19,insC 3' of 19 (mixed)
RNA 1: CACCCGUGCAAAAAUGCAGGGGUCUAAAACUGAGCGGAUAACCUCUCUAUGG
RNA 2: GGGAAUGGAUCCACAUCUACGAAUUCGUACCAUACAGAGAGGUUAUCCGCUCACCGAGAUCGGAAGAGCACACGU
B17: target 1 U11A,G13A (mixed)
RNA 1: CACCCGUGCAAAAAUGCAGGGGUCUAAAACUGAGCGGAUAACCUCUCUAUGG
RNA 2: GGGAAUGGAUCCACAUCUACGAAUUCGUACCAUAGAGAAGAUAUCCGCUCACCGAGAUCGGAAGAGCACACGU
B18: target 1 C4G,U19C (mixed)
RNA 1: CACCCGUGCAAAAAUGCAGGGGUCUAAAACUGAGCGGAUAACCUCUCUAUGG
RNA 2: GGGAAUGGAUCCACAUCUACGAAUUCGUACCACAGAGAGGUUAUCCGGUCACCGAGAUCGGAAGAGCACACGU
B19: target 1 C2G,U19C (mixed)
RNA 1: CACCCGUGCAAAAAUGCAGGGGUCUAAAACUGAGCGGAUAACCUCUCUAUGG
RNA 2: GGGAAUGGAUCCACAUCUACGAAUUCGUACCACAGAGAGGUUAUCCGCUGACCGAGAUCGGAAGAGCACACGU
B20: target 1 insG 3' of 16,insA 3' of 4 (mixed)
RNA 1: CACCCGUGCAAAAAUGCAGGGGUCUAAAACUGAGCGGAUAACCUCUCUAUGG
RNA 2: GGGAAUGGAUCCACAUCUACGAAUUCGUACCAUAGAGGAGGUUAUCCGCAUCACCGAGAUCGGAAGAGCACACGU
B21: target 1 insU 3' of 17 (mixed)
RNA 1: CACCCGUGCAAAAAUGCAGGGGUCUAAAACUGAGCGGAUAACCUCUCUAUGG
RNA 2: GGGAAUGGAUCCACAUCUACGAAUUCGUACCAUAGUAGAGGUUAUCCGCUCACCGAGAUCGGAAGAGCACACGU
B22: target 1 insA 3' of 8,insU 3' of 4 (mixed)
RNA 1: CACCCGUGCAAAAAUGCAGGGGUCUAAAACUGAGCGGAUAACCUCUCUAUGG
RNA 2: GGGAAUGGAUCCACAUCUACGAAUUCGUACCAUAGAGAGGUUAUACCGCUUCACCGAGAUCGGAAGAGCACACGU
B23: target 1 del3,del16 (mixed)
RNA 1: CACCCGUGCAAAAAUGCAGGGGUCUAAAACUGAGCGGAUAACCUCUCUAUGG
RNA 2: GGGAAUGGAUCCACAUCUACGAAUUCGUACCAUAGGAGGUUAUCCGCCACCGAGAUCGGAAGAGCACACGU
B24: target 1 insG 3' of 21,insU 3' of 20 (mixed)
RNA 1: CACCCGUGCAAAAAUGCAGGGGUCUAAAACUGAGCGGAUAACCUCUCUAUGG
RNA 2: GGGAAUGGAUCCACAUCUACGAAUUCGUACCGAUUAGAGAGGUUAUCCGCUCACCGAGAUCGGAAGAGCACACGU
B25: target 1 insA 3' of 22,insA 3' of 22 (mixed)
RNA 1: CACCCGUGCAAAAAUGCAGGGGUCUAAAACUGAGCGGAUAACCUCUCUAUGG
RNA 2: GGGAAUGGAUCCACAUCUACGAAUUCGUACAACAUAGAGAGGUUAUCCGCUCACCGAGAUCGGAAGAGCACACGU
B26: target 1 insU 3' of 18,insA 3' of 17 (mixed)
RNA 1: CACCCGUGCAAAAAUGCAGGGGUCUAAAACUGAGCGGAUAACCUCUCUAUGG
RNA 2: GGGAAUGGAUCCACAUCUACGAAUUCGUACCAUAUGAAGAGGUUAUCCGCUCACCGAGAUCGGAAGAGCACACGU
B27: target 1 insU 3' of 9,insU 3' of 5 (mixed)
RNA 1: CACCCGUGCAAAAAUGCAGGGGUCUAAAACUGAGCGGAUAACCUCUCUAUGG
RNA 2: GGGAAUGGAUCCACAUCUACGAAUUCGUACCAUAGAGAGGUUAUUCCGUCUCACCGAGAUCGGAAGAGCACACGU

This series has as its target T1, EsCas13d, nuclease-dead. Description: crRNA (strand 1, pre-loaded); Mg2+; 40 mM Tris-HCl pH 7.5, 150 mM NaCl, 6 mM MgCl2, 1 mM DTT, 0.1% Tween-20, 0.2 mg/ml BSA; 25 C; 10 min per concentration, then washed. The following applies: tags: His6-TwinStrep-SUMO cleaved; N-terminal SNAP kept (SNAP-Surface 488); label: 3' end held by stalled T7 RNA polymerase.
B1: the dissociation constant Kd (usually a measure of binding affinity in units of concentration) was 18.7 ± 1.5 nM.

Regarding B2, the Kd was determined as 6.88 ± 0.2 nM.

As to B3, the affinity, expressed as Kd, was 13.1 ± 0.4 nM.

For B4, binding was characterised by a dissociation constant (Kd) of 11.4 ± 0.9 nM. This Kd and that of the molecule before are within 1.5-fold of each other.

In turn, B5 registered an equilibrium dissociation constant (Kd) of 39 ± 7 nM.

Molecule B6 displayed a dissociation constant Kd of 6.22 ± 0.24 nM. Against the preceding molecule, the Kd is about 6.3-fold lower.

In the case of B7, binding was put at a Kd of 38 ± 7 nM.

Turning to B8, the Kd is 50 ± 5 nM.

On to B9, for which the Kd was 16.3 ± 0.8 nM.

With B10, the dissociation constant (Kd) was 30.8 ± 1.3 nM.

On to B11, for which the Kd came to 9.1 ± 0.4 nM.

In the case of B12, the Kd came to 15.3 ± 1.1 nM.

Molecule B13 gave a Kd of 30.9 ± 2.4 nM.

For B14, the dissociation constant (Kd) was found to be 63 ± 5 nM.

With B15, the Kd was determined as 38 ± 5 nM.

For B16, binding was put at a Kd of 21.5 ± 1.8 nM.

For B17, binding was put at a Kd of 38.5 ± 2.8 nM.

For B18, the Kd is 28 ± 6 nM.

On to B19, for which binding was characterised by a dissociation constant (Kd) of 18.5 ± 1 nM.

For the molecule B20, the equilibrium dissociation constant (Kd) turned out to be 10.5 ± 0.5 nM.

For the molecule B21, the dissociation constant Kd came out at 14.1 ± 1.2 nM.

Turning to B22, the Kd was found to be 12.3 ± 0.7 nM.

B23: the Kd amounted to 85 ± 31 nM.

B24 had an equilibrium dissociation constant (Kd) of 58 ± 9 nM.

In turn, B25 had a dissociation constant Kd of 9.9 ± 0.6 nM.

On to B26, for which binding was characterised by a dissociation constant (Kd) of 54 ± 7 nM.

B27 yielded a Kd of 8 ± 1.5 nM.
